Experimental data: patent US20150352207A1, “USE OF ANTIBODIES AGAINST ICAM-1 IN COMBINATION WITH AN ANTI CANCER DRUG IN THE TREATMENT OF PATIENTS” (BIOINVENT INTERNATIONAL AB, priority 2013, published 2015)

Key:
[1] = system: ICAM-1 expressing tumor cell lines; experiment: Complement-dependent cytotoxicity (CDC) in tumor cell lines; type: cell-based; details: panel of ICAM-1 expressing tumor cell lines
Procedure: Target cells were harvested and incubated in RPMI medium with antibodies at 5 μg/mL or at titrated concentrations between 0.01-100 μg/mL for 60 min on ice. Cells were thereafter washed and resuspended in cold medium before dispension into flow cytometry tubes. Treatments were performed in triplicates. Human serum, normal or heat-inactivated, (Sigma, Sweden) was added to tubes and the samples were incubated for 2 h at 37° C. After completed incubation ToPo-Pro-3 was added at a final concentration of 0.3 μM and cells were analyzed for membrane permeabilization using flow cytometry.

Daudi cells = experiment: Subcutaneous scid/Daudi non-Hodgkin lymphoma xenograft; type: in vivo, scid mice; details: twice weekly i.p. from day 1
ARH-77 cells = experiment: Disseminated scid/ARH-77 model of multiple myeloma; type: in vivo, scid mice; details: i.v. on Days 7, 10, 13, 16; antibody 2 mg/kg, bortezomib 0.5 mg/kg; vs control treatment
Procedure: ARH-77 cells or RPMI-8226 were injected intravenously into the SCID mice. (A) ARH-77 model. Animals received intravenous injections with antibody at 2 mg/kg or bortezomib (Velcade) at 0.5 mg/kg on Days 7, 10, 13, and 16 (as indicated by arrows in the graph). (B) RPMI-8226-model. B11 or control mAb was administered i.v at 2 mg/kg, twice weekly for 8 weeks, bortezomid, at 1 mg/kg, once weekly for 8 weeks, lenalidomide p.o with 2 mg/kg for 2 cycles consisting of 5 days of treatment and 2 days of wash out, melphalan i.v at 3 mg/kg, once weekly for 8 weeks, and dexamethasone (DXH) at 6 mg/kg/inj 3 times/week for 2 consecutive weeks. There were 6-10 mice per treatment group. Statistical significance was calculated using Log-rank Graphpad Prism software and determined at ***p<0.001. (C) To study the ICAM-1 level on human cells, the cells from different organs were stained and gated for CD38+/mCD45−/B11+. Left panel indicates the percentage of B11 positive cells in CD38+/mCD45 population and right panel the mean fluorescent intensity of the positive cells.
The anti-myeloma effect of B11 was examined in a disseminated model of multiple myeloma. The early and advanced disseminated model of multiple myeloma was performed at Oncodesign, Dijon, France. Briefly: 1×10^6 (early) or 5×10^6 (advanced) ARH-77 tumor cells in 200 μL of RPMI 1640 were injected intravenously (i.v) into the caudal vein of female scid mice (D0). Tumor cell injections were performed twenty four to forty eight hours after a whole body irradiation of mice (1.8 Gy, ^60Co, INRA, BRETENNIERES). The treatment was started at D5 RPMI-8226 model or D7 (ARH-77 model) […]. B11 or control mAb was administered i.v. at 2 mg/kg, twice weekly for 8 weeks, bortezomib, at 1 mg/kg, once weekly for 8 weeks, lenalidomide p.o with 2 mg/kg for 2 cycles consisting of 5 days of treatment and 2 days of wash out, melphalan i.v. at 3 mg/kg, once weekly for 8 weeks, and dexamethasone at 6 mg/kg 1 injected 3 times a week for 2 consecutive weeks.
The disseminated model of scid/ARH-77 is a well-established experimental model that resembles human multiple myeloma disease progression and disease manifestation in many respects (33). We utilized this model to further characterize IgG B11 anti-myeloma activity (FIG. 6A). Intravenous injection of irradiated scid mice with 1×10^6 ARH-77 cells was previously shown to result in their dissemination and establishment in mouse bone-marrow, and resulting osteolytic bone-lesions and hypercalcemia, and ultimately, in animal paralysis or difficulty of breathing at which time animals were immediately sacrificed. […]

[2] = system: B lymphoma cell line (CL-01); experiment: Antibody-dependent cell-mediated cytotoxicity (ADCC) with natural killer effector cells; type: cell-based; details: human Natural Killer effector cells
From the text: Buffy coats from human donors (ordered through Blodcentralen, Lund) were used to isolate peripheral blood mononuclear cells (PBMCs), and subsequently NK cells. Briefly, peripheral blood components were separated using Ficoll Paque PLUS (Amersham Biosciences, Sweden) in LeucoSep tubes (Greiner Bio-One). The PBMC fraction was removed and thoroughly washed in ice-cold DPBS (Invitrogen), before magnetic labeling and separation of the NK cell population using positive or negative NK cell isolation kits and MACS LS columns (Miltenyi Biotec). The purity of the obtained NK cell fractions was analyzed using flow cytometry, after staining with α-CD56 antibodies (BD Biosciences). Target cells were harvested, and incubated in medium with or without the respective antibodies (2 μg/mL) for 60 min on ice. Cells were thereafter washed and resuspended in cold medium before dispension into FACS tubes. Subsequently, isolated NK cells were diluted in ADCC medium and dispensed together with the respective antibody-coated target cells at varying effector/target cell ratios (40:1, 20:1, 5:1 and 1:1). All experiments were performed in triplicates. After completed incubation ToPo-Pro-3 dye and counting beads (Invitrogen) were added and cells were analyzed for membrane permeabilization using flow cytometry.

recombinant human ICAM-1 = recombinant human ICAM-1 (Homo sapiens, UniProt P05362); experiment: ELISA binding to recombinant human ICAM-1, ICAM-2 or ICAM-3; details: versus ICAM-2, ICAM-3
Sequence of recombinant human ICAM-1 (P05362 28-532): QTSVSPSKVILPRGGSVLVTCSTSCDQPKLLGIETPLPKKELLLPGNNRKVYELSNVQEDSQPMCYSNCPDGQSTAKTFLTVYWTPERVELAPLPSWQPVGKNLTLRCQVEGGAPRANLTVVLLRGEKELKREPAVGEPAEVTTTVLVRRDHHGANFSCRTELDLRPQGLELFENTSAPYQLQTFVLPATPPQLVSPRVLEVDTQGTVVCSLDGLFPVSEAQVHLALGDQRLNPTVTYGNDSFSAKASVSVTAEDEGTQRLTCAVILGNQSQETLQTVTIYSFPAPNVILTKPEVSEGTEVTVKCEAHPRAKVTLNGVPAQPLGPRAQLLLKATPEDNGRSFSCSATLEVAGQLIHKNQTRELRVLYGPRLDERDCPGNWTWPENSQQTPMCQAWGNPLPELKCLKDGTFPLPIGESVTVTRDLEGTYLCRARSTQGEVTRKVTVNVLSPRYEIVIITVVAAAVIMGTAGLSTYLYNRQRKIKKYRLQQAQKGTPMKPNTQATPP

B1: IgG B11: novel human ICAM-1 antibody targeting the B11 epitope, isolated from the naïve antibody library n-CoDeR (antibody, V domains shown)
VH: EVQLLESGGGLVQPGGSLRLSCAASGFTFSNAWMSWVRQAPGKGLEWVAFIWYDGSNKYYADSVKGRFTISRDNSKNTLYLQMNSLRAEDTAVYYCARYSGWYFDYWGQGTLVTVSS
VL: QSVLTQPPSASGTPGQRVTISCTGSSSNIGAGYDVHWYQQLPGTAPKLLIYDNNNRPSGVPDRFSGSKSGTSASLAISGLRSEDEADYYCQSYDSSLSAWLFGGGTKLTVLG
modifications: B11 antibody variable H region; B11 antibody variable L region
induction of CDC [1]: did not induce CDC | survival of tumor bearing mice (Daudi cells): prolonged survival of tumor bearing mice | tumor growth (Daudi cells): significantly and equally efficaciously compared to rituximab, prevented tumor growth | animal survival (ARH-77 cells): increased mean survival time | time to symptomatic disease onset (ARH-77 cells): doubled the time to symptomatic disease onset | ADCC of target tumor cells ([2]; listed as B11): mediated FcγRIIIA-dependent ADCC | ADCC of target tumor cells ([2]; listed as IgG B11 IgG1): mediated ADCC of target tumor cells | specificity for ICAM-1 (recombinant human ICAM-1): high specificity
